Source: the supplement of paper PMC9112550, “Optimization of the antimicrobial peptide Bac7 by deep mutational scanning” (BMC Biology, 2022)

The sequences below were run on Escherichia coli TOP10 (assay: shrunken log2 fold change of peptide-encoding DNA abundance (4.5 h post-induction vs induction); higher = less antimicrobial activity (less host growth inhibition)). Conditions: time post-induction: 4.5 h; library: site-saturation at positions 5, 18, 19, 20.
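Also: peptides expressed intracellularly from a pBAD plasmid library in pooled LB shake-flask culture, induced with 0.3% L-arabinose, DNA abundance read by NGS, three biological replicates, DESeq2 with apeglm shrinkage.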

Sequence	shrunken log2 fold change
RRIRERPPRLPRPRPRPFHEPRP	-0.0823
RRIRERPPRLPRPRPRPLWIPRP	-0.558
RRIRFRPPRLPRPRPRPFKKPRP	-0.119
RRIRKRPPRLPRPRPRPPGFPRP	0.55
RRIRLRPPRLPRPRPRPAFFPRP	0.406
RRIRERPPRLPRPRPRPQEKPRP	-0.015
RRIRIRPPRLPRPRPRPCCIPRP	-2.25
RRIRVRPPRLPRPRPRPPLRPRP	0.93
RRIRYRPPRLPRPRPRPKTFPRP	-0.251
RRIRDRPPRLPRPRPRPHHMPRP	-0.128
RRIRGRPPRLPRPRPRPREGPRP	1.42
RRIRQRPPRLPRPRPRPSWPPRP	-0.0496
RRIRSRPPRLPRPRPRPTTPPRP	0.502
RRIRARPPRLPRPRPRPAKWPRP	0.273
RRIRIRPPRLPRPRPRPRWRPRP	0.267
RRIRPRPPRLPRPRPRPPLYPRP	0.217
RRIRTRPPRLPRPRPRPVPKPRP	0.0251
RRIRTRPPRLPRPRPRPQWKPRP	0.0581
RRIRNRPPRLPRPRPRPIHLPRP	-0.73
RRIRSRPPRLPRPRPRPYEYPRP	-0.55
RRIRHRPPRLPRPRPRPYRIPRP	-0.231
RRIRTRPPRLPRPRPRPCQDPRP	-0.13
RRIRERPPRLPRPRPRPQRPPRP	-0.0471
RRIRLRPPRLPRPRPRPCRCPRP	0.00318
RRIRKRPPRLPRPRPRPTRHPRP	0.482

Sequence	shrunken log2 fold change
RRIRWRPPRLPRPRPRPFIQPRP	-0.437
RRIRWRPPRLPRPRPRPYVWPRP	-0.0228
RRIRKRPPRLPRPRPRPFYIPRP	-0.44
RRIRCRPPRLPRPRPRPEYMPRP	0.0436
RRIRRRPPRLPRPRPRPCLVPRP	-0.096
RRIRGRPPRLPRPRPRPYCQPRP	-0.32
RRIRMRPPRLPRPRPRPIRDPRP	-0.261
RRIRIRPPRLPRPRPRPVQPPRP	0.204
RRIRQRPPRLPRPRPRPSRHPRP	-0.0666
RRIRPRPPRLPRPRPRPCSSPRP	-0.467
RRIRQRPPRLPRPRPRPDIVPRP	-0.0164
RRIRERPPRLPRPRPRPWFNPRP	-0.599
RRIRERPPRLPRPRPRPMKRPRP	-0.312
RRIRNRPPRLPRPRPRPKPVPRP	0.24
RRIRRRPPRLPRPRPRPMDIPRP	-0.168
RRIRPRPPRLPRPRPRPKEEPRP	0.0604
RRIRERPPRLPRPRPRPDKPPRP	-0.051
RRIRGRPPRLPRPRPRPNPQPRP	0.0794
RRIRNRPPRLPRPRPRPEMGPRP	-0.0261
RRIRDRPPRLPRPRPRPSLAPRP	0.474
RRIRLRPPRLPRPRPRPFCKPRP	-0.101
RRIRCRPPRLPRPRPRPKKNPRP	0.24
RRIRWRPPRLPRPRPRPRHKPRP	-0.0379
RRIRLRPPRLPRPRPRPLFVPRP	-0.329
RRIRFRPPRLPRPRPRPTPSPRP	0.636

Sequence	shrunken log2 fold change
RRIRKRPPRLPRPRPRPYDWPRP	-0.0468
RRIRGRPPRLPRPRPRPIQHPRP	-0.0341
RRIRTRPPRLPRPRPRPPTAPRP	-0.0521
RRIRVRPPRLPRPRPRPLGNPRP	-0.424
RRIRARPPRLPRPRPRPAQKPRP	0.0505
RRIRGRPPRLPRPRPRPSVVPRP	0.658
RRIRYRPPRLPRPRPRPEICPRP	0.0682
RRIRCRPPRLPRPRPRPNRFPRP	2.96
RRIRDRPPRLPRPRPRPQYWPRP	-0.695
RRIRLRPPRLPRPRPRPFKSPRP	-0.209
RRIRLRPPRLPRPRPRPDAIPRP	0.0952
RRIRDRPPRLPRPRPRPLEGPRP	0.0257
RRIRDRPPRLPRPRPRPQAHPRP	0.0994
RRIRPRPPRLPRPRPRPMVGPRP	0.265
RRIRRRPPRLPRPRPRPHEQPRP	0.0519
RRIRYRPPRLPRPRPRPKGMPRP	-0.111
RRIRSRPPRLPRPRPRPFWCPRP	-0.0118
RRIRSRPPRLPRPRPRPVQDPRP	0.339
RRIRKRPPRLPRPRPRPRELPRP	0.753
RRIRNRPPRLPRPRPRPLIGPRP	-0.0791
RRIRHRPPRLPRPRPRPREQPRP	0.628
RRIRRRPPRLPRPRPRPFDIPRP	-0.0362
RRIRPRPPRLPRPRPRPFTRPRP	-0.00841
RRIRKRPPRLPRPRPRPMRDPRP	0.0228
RRIRDRPPRLPRPRPRPGGIPRP	0.129

Sequence	shrunken log2 fold change
RRIRNRPPRLPRPRPRPYTCPRP	-0.0637
RRIRRRPPRLPRPRPRPIARPRP	0.0248
RRIRERPPRLPRPRPRPSIIPRP	-0.188
RRIRPRPPRLPRPRPRPDARPRP	0.58
RRIRIRPPRLPRPRPRPHQQPRP	-0.132
RRIRCRPPRLPRPRPRPPWSPRP	0.175
RRIRWRPPRLPRPRPRPRKPPRP	0.188
RRIRRRPPRLPRPRPRPYKNPRP	-0.47
RRIRIRPPRLPRPRPRPPSRPRP	0.231
RRIRNRPPRLPRPRPRPLWQPRP	-0.303
RRIRPRPPRLPRPRPRPYFHPRP	-0.522
RRIRFRPPRLPRPRPRPAFIPRP	-0.274
RRIRFRPPRLPRPRPRPAIEPRP	0.519
RRIRMRPPRLPRPRPRPSENPRP	-0.0243
RRIRDRPPRLPRPRPRPQFNPRP	-0.195
RRIRARPPRLPRPRPRPHDMPRP	0.245
RRIRKRPPRLPRPRPRPLDKPRP	-0.0705
RRIRARPPRLPRPRPRPFENPRP	0.166
RRIRGRPPRLPRPRPRPWKWPRP	0.0325
RRIRSRPPRLPRPRPRPPWEPRP	0.198
RRIRERPPRLPRPRPRPGMGPRP	-0.0461
RRIRGRPPRLPRPRPRPDDGPRP	-0.0284
RRIRKRPPRLPRPRPRPIEKPRP	0.694
RRIRWRPPRLPRPRPRPKCWPRP	0.467
RRIRKRPPRLPRPRPRPCDQPRP	-0.0132

Sequence	shrunken log2 fold change
RRIRFRPPRLPRPRPRPQQIPRP	-0.54
RRIRIRPPRLPRPRPRPKPTPRP	0.448
RRIRHRPPRLPRPRPRPNSSPRP	-0.203
RRIRQRPPRLPRPRPRPCSDPRP	-0.136
RRIRARPPRLPRPRPRPQKLPRP	0.298
RRIRFRPPRLPRPRPRPERQPRP	-0.000475
RRIRVRPPRLPRPRPRPNEHPRP	-0.00876
RRIRDRPPRLPRPRPRPYKAPRP	-0.0157
RRIRQRPPRLPRPRPRPDMRPRP	0.0308
RRIRLRPPRLPRPRPRPAFKPRP	-0.195
RRIRDRPPRLPRPRPRPDSEPRP	-0.0121
RRIRQRPPRLPRPRPRPLPLPRP	-0.287
RRIRWRPPRLPRPRPRPQIFPRP	-0.053
RRIRARPPRLPRPRPRPGMMPRP	0.207
RRIRQRPPRLPRPRPRPTCVPRP	-0.442
RRIRKRPPRLPRPRPRPKAHPRP	0.242
RRIRDRPPRLPRPRPRPKEYPRP	-0.0963
RRIRSRPPRLPRPRPRPFPAPRP	0.0186
RRIRARPPRLPRPRPRPDENPRP	1.2
RRIRKRPPRLPRPRPRPAFEPRP	0.158
RRIRPRPPRLPRPRPRPQFSPRP	-0.184
RRIRVRPPRLPRPRPRPEAWPRP	0.181
RRIRDRPPRLPRPRPRPGNQPRP	-0.0686
RRIRERPPRLPRPRPRPMWLPRP	-0.07
RRIRWRPPRLPRPRPRPLCRPRP	0.17
